How the values were obtained:
[1] = target: T1, P6A-bS; assay: two-hybrid library CCNG1;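 note: natural log of median RNA to DNA barcode read ratio; higher means stronger binding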
T1 chain: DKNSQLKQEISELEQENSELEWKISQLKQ

[2] = target: T2, P11A-bS; assay: two-hybrid library CCNG1;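 note: natural log of median RNA to DNA barcode read ratio; higher means stronger binding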
T2 chain: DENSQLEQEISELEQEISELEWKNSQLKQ

[3] = target: T3, P4A-bS; assay: two-hybrid library CCNG1;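 note: natural log of median RNA to DNA barcode read ratio; higher means stronger binding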
T3 chain: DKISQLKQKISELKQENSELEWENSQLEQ

[4] = target: T4, P5A-bS; assay: two-hybrid library CCNG1;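 note: natural log of median RNA to DNA barcode read ratio; higher means stronger binding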
T4 chain: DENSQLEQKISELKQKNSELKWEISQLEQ

[5] = target: T5, P2A-bS; assay: two-hybrid library CCNG1;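 note: natural log of median RNA to DNA barcode read ratio; higher means stronger binding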
T5 chain: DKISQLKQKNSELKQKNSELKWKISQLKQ

[6] = target: T6, P7A-bS; assay: two-hybrid library CCNG1;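 note: natural log of median RNA to DNA barcode read ratio; higher means stronger binding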
T6 chain: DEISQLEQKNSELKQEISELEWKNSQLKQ

[7] = target: T7, P1A-bS; assay: two-hybrid library CCNG1
T7 chain: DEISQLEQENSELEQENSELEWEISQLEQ

[8] = target: T8, P8A-bS; assay: two-hybrid library CCNG1
T8 chain: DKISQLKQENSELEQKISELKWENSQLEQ

[9] = target: T9, P12A-bS; assay: two-hybrid library CCNG1
T9 chain: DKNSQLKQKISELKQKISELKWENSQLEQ

[10] = target: T10, P3A-bS; assay: two-hybrid library CCNG1
T10 chain: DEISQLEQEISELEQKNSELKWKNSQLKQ

[11] = target: T11, 4H2732-AA; assay: two-hybrid library CCmax; details: mean of both orientations
T11 chain: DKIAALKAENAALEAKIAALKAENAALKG

[12] = target: T12, 4H452-AA; assay: two-hybrid library CCmax; details: mean of both orientations
T12 chain: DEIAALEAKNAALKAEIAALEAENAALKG

[13] = target: T13, 4H2931-AA; assay: two-hybrid library CCmax; details: mean of both orientations
T13 chain: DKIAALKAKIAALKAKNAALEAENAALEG

[14] = target: T14, 4H3001-AA; assay: two-hybrid library CCmax; details: mean of both orientations
T14 chain: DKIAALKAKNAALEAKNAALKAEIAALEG

[15] = target: T15, 4H1930-AA; assay: two-hybrid library CCmax; details: mean of both orientations
T15 chain: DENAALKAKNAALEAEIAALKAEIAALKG

[16] = target: T16, 4H1650-AA; assay: two-hybrid library CCmax
T16 chain: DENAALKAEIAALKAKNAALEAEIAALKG

[17] = target: T17, 4H249-AA; assay: two-hybrid library CCmax; details: mean of both orientations
T17 chain: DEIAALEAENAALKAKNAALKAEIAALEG

[18] = target: T18, 4H2592-AA; assay: two-hybrid library CCmax; details: mean of both orientations
T18 chain: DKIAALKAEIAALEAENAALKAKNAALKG

[19] = target: T19, 4H3015-AA; assay: two-hybrid library CCmax; details: mean of both orientations
T19 chain: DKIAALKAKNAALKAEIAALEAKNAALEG

[20] = target: T20, 4H2253-AA; assay: two-hybrid library CCmax; details: mean of both orientations
T20 chain: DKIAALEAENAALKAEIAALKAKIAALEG

[21] = target: T21, 4H2774-AA; assay: two-hybrid library CCmax; details: mean of both orientations
T21 chain: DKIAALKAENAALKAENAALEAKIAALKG

[22] = target: T22, 4H347-AA; assay: two-hybrid library CCmax; details: mean of both orientations
T22 chain: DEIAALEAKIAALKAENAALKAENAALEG

[23] = target: T23, 4H406-AA; assay: two-hybrid library CCmax; details: mean of both orientations
T23 chain: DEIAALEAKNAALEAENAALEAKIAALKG

[24] = target: 4H_GCN4; assay: two-hybrid library CCmax
[25] = target: T24, 4H3073-AA; assay: two-hybrid library CCmax; details: mean of both orientations
T24 chain: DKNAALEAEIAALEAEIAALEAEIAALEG

[26] = target: T25, 4H2466-AA; assay: two-hybrid library CCmax; details: mean of both orientations
T25 chain: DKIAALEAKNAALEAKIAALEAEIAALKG

[27] = target: T26, 4H2165-AA; assay: two-hybrid library CCmax; details: mean of both orientations
T26 chain: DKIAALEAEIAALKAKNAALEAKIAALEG

[28] = target: GCN2_T; assay: two-hybrid library CCmax
[29] = target: T27, 4H175-AA; assay: two-hybrid library CCmax; details: mean of both orientations
T27 chain: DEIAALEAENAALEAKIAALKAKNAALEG

[30] = target: T28, 4H56-AA; assay: two-hybrid library CCmax; details: mean of both orientations
T28 chain: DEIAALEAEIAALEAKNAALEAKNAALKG

[31] = target: T29, 4H2330-AA; assay: two-hybrid library CCmax; details: mean of both orientations
T29 chain: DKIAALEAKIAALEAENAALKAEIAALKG

[32] = target: T30, 4H1765-AA; assay: two-hybrid library CCmax; details: mean of both orientations
T30 chain: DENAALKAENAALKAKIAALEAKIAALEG

[33] = target: T31, 4H1828-AA; assay: two-hybrid library CCmax; details: mean of both orientations
T31 chain: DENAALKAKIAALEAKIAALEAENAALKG

[34] = target: T32, 4H_APH; assay: two-hybrid library CCmax; details: mean of both orientations
T32 chain: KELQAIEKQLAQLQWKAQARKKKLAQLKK

[35] = target: T33, 4H2124-AA; assay: two-hybrid library CCmax; details: mean of both orientations
T33 chain: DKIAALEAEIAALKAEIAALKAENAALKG

[36] = target: T34, 4H2343-AA; assay: two-hybrid library CCmax; details: mean of both orientations
T34 chain: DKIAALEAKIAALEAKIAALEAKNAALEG

[37] = target: T35, 4H1821-AA; assay: two-hybrid library CCmax
T35 chain: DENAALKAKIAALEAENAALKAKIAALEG

[38] = target: T36, 4H_BCR; assay: two-hybrid library CCmax; details: mean of both orientations
T36 chain: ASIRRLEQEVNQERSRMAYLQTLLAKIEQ

[39] = target: T37, 4H3438-AA; assay: two-hybrid library CCmax
T37 chain: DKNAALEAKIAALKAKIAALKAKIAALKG

[40] = target: T38, P9A-bS; assay: two-hybrid library CCNG1
T38 chain: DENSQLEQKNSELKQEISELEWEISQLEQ

[41] = target: T39, 4H56-bN; assay: two-hybrid library CCNG1
T39 chain: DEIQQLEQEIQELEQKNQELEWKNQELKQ

[42] = target: T40, 4H3414-bN; assay: two-hybrid library CCNG1
T40 chain: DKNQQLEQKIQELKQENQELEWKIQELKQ

[43] = target: T41, 4H1985-bN; assay: two-hybrid library CCNG1
T41 chain: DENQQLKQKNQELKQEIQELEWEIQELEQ

[44] = target: T42, 4H1629-bN; assay: two-hybrid library CCNG1
T42 chain: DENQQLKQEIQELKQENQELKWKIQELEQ

[45] = target: T43, 4H1359-bN; assay: two-hybrid library CCNG1
T43 chain: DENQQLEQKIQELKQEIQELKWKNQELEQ

[46] = target: T44, 4H3817-bN; assay: two-hybrid library CCNG1
T44 chain: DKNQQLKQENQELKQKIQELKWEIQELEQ

[47] = target: T45, 4H850-bN; assay: two-hybrid library CCNG1
T45 chain: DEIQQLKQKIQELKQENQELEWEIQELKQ

[48] = target: T46, 4H3631-bN; assay: two-hybrid library CCNG1
T46 chain: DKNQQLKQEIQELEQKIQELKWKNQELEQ

[49] = target: T47, 4H584-bN; assay: two-hybrid library CCNG1
T47 chain: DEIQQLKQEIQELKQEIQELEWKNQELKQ

[50] = target: T48, 4H1710-bN; assay: two-hybrid library CCNG1
T48 chain: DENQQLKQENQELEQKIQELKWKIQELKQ

[51] = target: T49, 4H570-bN; assay: two-hybrid library CCNG1
T49 chain: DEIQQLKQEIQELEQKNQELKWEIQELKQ

[52] = target: T50, 4H3638-bN; assay: two-hybrid library CCNG1
T50 chain: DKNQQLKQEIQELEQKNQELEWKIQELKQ

[53] = target: T51, 4H1804-bN; assay: two-hybrid library CCNG1
T51 chain: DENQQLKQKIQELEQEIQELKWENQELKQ

[54] = target: T52, 4H619-bN; assay: two-hybrid library CCNG1
T52 chain: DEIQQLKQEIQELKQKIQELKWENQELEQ

[55] = target: T53, 4H906-bN; assay: two-hybrid library CCNG1
T53 chain: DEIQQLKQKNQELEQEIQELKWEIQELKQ

[56] = target: T54, 4H3129-bN; assay: two-hybrid library CCNG1
T54 chain: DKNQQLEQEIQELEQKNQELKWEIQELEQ

[57] = target: T55, 4H3172-bN; assay: two-hybrid library CCNG1
T55 chain: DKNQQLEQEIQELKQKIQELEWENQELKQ

[58] = target: T56, 4H3974-bN; assay: two-hybrid library CCNG1
T56 chain: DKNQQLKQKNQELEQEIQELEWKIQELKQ

[59] = target: T57, 4H1449-bN; assay: two-hybrid library CCNG1
T57 chain: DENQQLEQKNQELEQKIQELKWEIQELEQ

[60] = target: T58, 4H1393-bN; assay: two-hybrid library CCNG1
T58 chain: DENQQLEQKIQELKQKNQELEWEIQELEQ

Chain of 4H_GCN4 (chain, as listed by the source): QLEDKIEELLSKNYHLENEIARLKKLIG

DKNSQLKQENSELEQKISELKWKISQLKQ [P10A-bS]
interaction score [1]: -1.53 | interaction score [2]: -0.138 | interaction score [3]: -0.106 | interaction score [4]: -1.76 | interaction score [5]: -0.0157 | interaction score [6]: -0.464 | interaction score [7]: -2.5 | interaction score [8]: -0.395 | interaction score [9]: -0.0445 | interaction score [10]: -0.693

DENAALKAEIAALKAKNAALEAEIAALKG [4H1650-AA]
interaction score [11]: -0.897 | interaction score [12]: -1.34 | interaction score [13]: -1.59 | interaction score [14]: -1.67 | interaction score [15]: -1.42 | interaction score [16]: 1.93 | interaction score [17]: -1.71 | interaction score [18]: -1.61 | interaction score [19]: -1.53 | interaction score [20]: -1.47 | interaction score [21]: -1.48 | interaction score [22]: -2.36 | interaction score [23]: -1.61 | interaction score [24]: -1.9 | interaction score [25]: -1.16 | interaction score [26]: -1.67 | interaction score [27]: -1.3 | interaction score [28]: -0.999 | interaction score [29]: -1.43 | interaction score [30]: -1.74 | interaction score [31]: -1.54 | interaction score [32]: -1.53 | interaction score [33]: -1.48 | interaction score [34]: -1.42 | interaction score [35]: -1.42 | interaction score [36]: -1.44 | interaction score [37]: -1.25 | interaction score [38]: -1.36 | interaction score [39]: -1.13

DKNSQLKQKISELKQKISELKWENSQLEQ [P12A-bS]
interaction score [1]: -0.87 | interaction score [3]: -1.12 | interaction score [4]: -2.21 | interaction score [5]: -1.69 | interaction score [6]: -0.873 | interaction score [7]: -0.648 | interaction score [40]: -0.676 | interaction score [8]: -1.07 | interaction score [9]: -1.48 | interaction score [10]: -2.43

DENQQLEQKIQELKQEIQELKWKNQELEQ [4H1359-bN]
interaction score [41]: -1.25 | interaction score [42]: -0.131 | interaction score [43]: -0.294 | interaction score [44]: -1.24 | interaction score [45]: -0.688 | interaction score [46]: -1.14 | interaction score [47]: -0.294 | interaction score [48]: 0.911 | interaction score [49]: -0.701 | interaction score [50]: -0.607 | interaction score [51]: -0.803 | interaction score [52]: -1.64 | interaction score [53]: 0.796 | interaction score [54]: -1.38 | interaction score [55]: -1.22 | interaction score [56]: -0.57 | interaction score [57]: 0.294 | interaction score [58]: 1.47 | interaction score [59]: -0.317 | interaction score [60]: -0.209

DENSQLEQEISELEQEISELEWKNSQLKQ [P11A-bS]
interaction score [1]: 0.727 | interaction score [2]: -0.865 | interaction score [3]: 0.142 | interaction score [4]: -0.458 | interaction score [5]: -0.288 | interaction score [6]: -1.25 | interaction score [7]: 0.728 | interaction score [40]: -0.134 | interaction score [8]: 0.714 | interaction score [9]: 2.41 | interaction score [10]: -0.458

Reference: publication PMC10397247
